Results on 20 sequences are retold here after the DeepSol protein solubility set.

A short description of this series: soluble on expression in E. coli; label from the status in PepcDB or PDB records.
“MAILRLEPQQLYSVADLENMPCKSTKELPPIDEIVGQERAQKAVEFAMSIKEKGYNIYAIGQNGLGKRTMILRYLNRHQHDADALFDWCYVANFEDTRTPKVLKLPCGIGNKLRVDIEALMGKLLNALPLAFDNEMYFSRADRLKNQLANKQQNELDRISREAKEHGISLTITSQGDYQFVAMNGDELHTEESFDALSKKEQEQFSDSIDALEVSLRSMVRELTEWEDTYSDKIKKLNDEVTLDVITHFIKKLKVDYSEYSEIKTYLTELQKDIVENADIFLDQSGEQGEIAAASLDKKLPRRYKVNVLVSRNNSDFPIVVEENPNYHSLFGSIETATFKGTVFTDFSLIRAGSLHKANGGVLLMDAQKVLEQPYVWDGLKRALRARQLSFTSLEKEVTLTGAVSLDPEPIPLDIKIILFGDYRTYQLLQHYDPEFSELFRVTADFEDEMKRTPESELHYARFISSVVHDNNMLHCDRKAIARIIEYSSRLSGDQSKLSLHSANIANLLRESNYVARQANSNMIRIGHVEEAMKNQEMRVSRLRDSVMETFLNGTT”: the “soluble on expression in E. coli” value is on record as “not soluble”. With “MAIPKIASYPLPVSLPTNKVDWRIDASRAVLLIHDMQEYFVHYFDSQAEPIPSLIKHIQQLKAHAKQAGIPVVYTAQPANQDPAERALLSDFWGPGLSEETAIIAPLAPESGDVQLTKWRYSAFKKSPLLDWLRETGRDQLIITGVYAHIGILSTALDAFMFDIQPFVIGDGVADFSLSDHEFSLRYISGRTGAVKSTQQACLEIAAQHSKLTGLSLRTMQHDVAAALNLSVDEVDVQENLLFLGLDSIRAIQLLEKWKAQGADISFAQLMEHVTLQQWWQTIQANLHQPCSA” the entry was “not soluble”; with “MAIPSRSPLASRALSFLGALSLLTFAATPVLAESTPTAAPPQFAVESPKAASSLLLSVAHAGKRLVAVGDRGHILLSDDDGKTWTQAKVPTRQLLTSVFFVNERKGWAVGHDAQILVSDDAGSTWARQFEDLGREAPLLDIWFADEQHGLAVGAYGALLETRDGGQHWEDVSERLDNEDQFHLNAIAAVKDNGLLVVGEAGSLFRSKDWGATWEKLEGPYEGSLFGAIGTADAGGVLVYGLRGHLFRSADFGDSWEEIPLKAASGDLEFGLSDGALLADGRIVVVGHGGSVLESTDGGRSFSVFNRPDRLSLAGVSATGDGHLILVGQGGVHLAAANGAALEQQQLEHHHHHH”, “soluble”; with “MAIQLSKGQRIDLTKTNPGLTKAVIGLGWDTNKYSGGHDFDLDASAFLVDAHDNCVNDLDFVFYNNLEHPSGGVIHTGDNRTGEGDGDDEQIIVDFSKIPAHIEKIGITVTIHDAEARSQNFGQVSNAFVRVVDEETQNELLRFDLGEDFSIETAVVVCELYRHGGEWKFNAIGSGFSGGLAALCRNYGLQV”, “not soluble”.

As to “MAISNILPRKIMKNRTRQQSMAERHDYDQKEEKTDGGELVSSYMCSPETAAEEFEISKKLYAQLTGRSQSEKHDIIMYRIIQSFKPDEVSPEEAHKIGCELAMKFTGGQHQFVVATHTDKRHIHTHIEFNSTNLNCDAKFQNVKNSAFILRRMNDELCRAHGLSVIENPKKKARPQKEMAAAQYGVSHKKQLQQAIDRLLPECNHYEEFLAKMRAEGYEVVDGKNPGFRLPGWDRPTRVNRLGDDYTKTALRARITSQRRRLTSGKTAPKRTGRKVNLLIDIQAKLAAGKGAGYERWAKIFNLKEAAKTLNFLIENNLTDYDELALRAEQAENGFNAVSQKIKQLEARMAGIAQLKTHIIQYSKTREVYAAYKKSRHKKEFLAEHGAEIAQHEAAKKAFDALNGKAIPKVAQLSAEYAALLEEKREQYEQYKTLRQDMITYQTALRNMDKILGLEPPEQAQEKEQTKPER”, the “soluble on expression in E. coli” value is “not soluble”.

Regarding “MAITDILSAKDIESALSSCQAADSFNYKSFFSTVGLSSKTPDQIKKVFGILDQDKSGFIEEEELQLFLKNFSSSARVLTSAETKAFLAAGDTDGDGKIGVEEFQSLVKA”, the “soluble on expression in E. coli” value is given as “soluble”.

Take “MAIVKKKKVSAASKAATEKPEVKKAVKRPVAETEAVTPKKKKLVKKVKKSAKKAHEEEPIEQVEKLQLIDDDEDGLEGLSFPGSDDEDLRDDYSDDDSDAGDHLPIEKKSAALDKQKEKIIAEGEEELQLNIANQATFELPTVEEIENEMKSVPNLEIVKQRIADVIQVLGDFKNRRDPQKSRENYVEVLKKDLCSQYGYNDYLMGKFMDLFPNGAELLEFLEANDNPRPVTIRANSLKVKRRDLAKNLINRGMNVDPAADWTKVGLVVYDSQVPVGATPEYLAGHYMIQGLNSLLPVMALAPQPGDRVLDMCSAPGGKTSHIAALMKNSGVLFANDANFTRCRAIIGNLHRLGVNNTVVCNLGGEEFSKIRPNGFDRILLDAPCSGTGVIWKDQSVKTSKDSQDVQRRHTMQRQLILSALDSLDANSPNGGYLVYSTCSVLVEENEAVVNFLLERRHCELVPTGLSIGVDGYTRFRDYRFHPSLSMTKRYYPHVHNIDGFYVAKIKKLSNAKMSKQGVMEKEKEKAAQKSQNKKNKAEAEASESSDDEEEKKNGVEVNGQKKPAKKQQQKKQKADGDDSDDDNNAPMKNIGSGARANKKRRNQKKAAEKQAAVKEDDGFNTVGNVKRAKKPTQFKSKVPKRAAARTGAKSVKNRRKKMLAKQQ”: the “soluble on expression in E. coli” value is “not soluble”. As for “MAIVPRPITKFKRACLRIKLARCQKTPLSNFARSDLRSFSVFRFNLSVLQLVSSKIVKLDIMKQAAITSALTQNKMDPINGNLTSTAPVEPLSLTAAEQVGGAFCHQFYITVSENRKAITKFYGHESKFYLDDQVVTGSQEIVKLYNHLPETTHFKIQSIKGYPTPHKQGVIINVIGTVNLRPFLQSFLLGQQGQKKYYVESDAFQYIDKFFVANTEKEKTTSSTGHNGHASGANGKDSKSSKTEQPKEQSKPAPPKQQTPKKAEDRIVKQDTPKSVEKEVAKTPQKPQLAQQPPQQRAPVPEPVQEQPKVQKTWANLVGGGGKSQPPQQQSYGQGQQIHQQTQMHHMQPSMHQQQQGSHAPLYQQQRQSHPANELRQAQESSDANLNERKIYLGGITREIVPSNTAQAESEIKQVFYKYGEIEEVRMPRKVLDSPNDTSKHAFAFITMRNKAGVKAIFEAATKDEQGVWKLPLKLDAFGFDGHAQISEQRDQPQGGGFRGGRGGFQPRGGQFFRRGGSGGAPRGGMRSGFQNAGQN”, the “soluble on expression in E. coli” value is on record as “not soluble”. Next, “MAKAFEEQRRSPDLEALPFEDRIGLLVDREAAERDTRRLTTRLKIAALRQTACVEDVDLRTPRGIDRAVFAKLVEGRWIDRHENLLVTGATGLGKSWLACALGHKACRDNRSVLYHRVPRLFEALALARGDGRYARLLKSLGRAQLLILDDWGLSVLTAAERRDLLEILEDRHGRASTIVTSQLPWTPGMEPLGTPRSPTPFSIASSTTPTASSSPEKACENAAPKPSPLTANQNTDSISHRPAAALEHHHHHH”: “not soluble”. Regarding “MAKAPDIVDLLTLAVDRNASDLVITVGLPPMIKIDGEFHPTEHEALTPQDTRRLMYALMDEKQQRHFEEEKELDFSFSLPAKGRYRVNVFLQRGSVGGVLRVVPTVVKSFEELGLPKNIGELALTPRGLLLITGPTGSGKSTTLASMIDYINERRRAHIVTIEDPIEFFHRHKTSIINQREIGSDTHGFHKALRSVLRQAPDVILVGEMRDYETISAAITAAETGHLVMGTLHTNSAPETIDRIIDVFPEAQQEQVRVQLANNLVAVMTQQLLPKAFGGGRVLAYELMIATSAVRALIREGKSHQLVSVIQTGGQYNMITMDACLADLYKRKLITYEMGQSRAVDPKEFARLAGAAAPAASTNTGAQRRA”, the “soluble on expression in E. coli” value was “soluble”. In the case of “MAKDDVIEVEGTVLETLPNAMFKVELENGHVVLAHVSGKIRMNFIRILPGDKVTVELSPYDLNRGRITYRFK”, the “soluble on expression in E. coli” value is “not soluble”. Next, “MAKELAEKAKEAFLDDDFDVAVDLYSKAIDLDPNCAAFFADRAQANIKIDNFTEAVVDANKAIELEPTLAKAYLRKGTACMKLEEYSTAKAALEKGASVAPNEPKFKKMIDECDLRIAEEEKDLVQPMPPSLPSSSTTPLATEADAPPVPIPAAPAKPMFRHEFYQKPEEAVVTIFAKKVPKENVTVEFGEQILSVVIDVAGEEAYHLQPRLFGKIIPEKCRFEVLSTKVEIRLAKAEIITWASLEYGKGQSVLPKPNVSSALSQRPVYPSSKPAKDWDKLEAEVKKQEKDEKLDGDAAMNKFFSDIYSSADEDMRRAMNKSFAESNGTVLSTNWKEVGTKKVESTPPDGMELKKWEY”: “not soluble”; “MAKGIMLHEVGEQVDQYLLIKSSTKGIASNGKPFLTLMLQDQSGDIEAKLWDAKQSDEVTYAPQTIVKVVGDVHHYRGRTQLKLRNIRPVSEQENVNIDDFLETAPIPKNEMMDTITQYIFEMKNPNIQRITRFLVKKHEAEFMDYPAATKNHHEFVSGLAYHVVSMLNLAKAIADLYPSLDRDLLYAGVILHDLGKVKELSGPVSTSYTVEGNLLGHISIMVTELSKAAEELQIDSEEVLILQHLILSHHGKAEWGSPKPPMVKEAEILHYIDNLDAKMNMMDRALERVKPGEYTERVFALENRSFYKPTFHK”: “not soluble”. With “MAKKGPKRHLKRLAAPVRWELPRKIHKFTVRPLPGAHPMSESLPLLLIVRDILKYADNAREAKKIIKMGKVLVDGRVRKEEKLPVGLMDVVSLPDANENYRVLFDRKGRIKLKPTENPDVKLCKIKNKTVIKGGHIQLNLHDGRNIVIKVSDPTKAEEDVYKTGDTLLISIPEQEIKAHIPFEVGKLAYITGGKHVGDFAKIVEIERRGIYPDIVTLENMDGEKFKTVKDYVFVVGDEEPIIKLLEHHHHHH” the entry was “soluble”; with “MAKLDDWTDIFLDDEGNFRASADGDVQLVTGKAAYLQDVKHELETVLGSYPFDENYGTRLITYLQRENTELARQELIQDVEEVVMRHSFVVPGSVDVRANSWTLREIEFSVSFGVQTSGGIEPAELTVQITVDGVRVVRSE”, “not soluble”; with “MAKLLITGGCGFLGSNLASFALSQGIDLIVFDNLSRKGATDNLHWLSSLGNFEFVHGDIRNKNDVTRLITKYMPDSCFHLAGQVAMTTSIDNPCMDFEINVGGTLNLLEAVRQYNSNCNIIYSSTNKVYGDLEQYKYNETETRYTCVDKPNGYDESTQLDFHSPYGCSKGAADQYMLDYARIFGLNTVVFRHSSMYGGRQFATYDQGWVGWFCQKAVEIKNGINKPFTISGNGKQVRDVLHAEDMISLYFTALANVSKIRGNAFNIGGTIVNSLSLLELFKLLEDYCNIDMRFTNLPVRESDQRVFVADIKKITNAIDWSPKVSAKDGVQKMYDWTSSILEHHHHHH”, “soluble”. As for “MAKNSPQDLINREIFSTNLNMLMAKKNIKQIDIHNKLGIPKSTITGYVKGRSLPTAGNVQKLADFFGVLKSDIDPRFDSNNIETNSNIIPSTLQKVTSTLSQLEHKRQLNVLDYAETQLEQQNTVEEPQATYYTYNYYDHAASAGTGQYLNDVQVETIELPVDYDADFVIPVYGDSMEPEYHSGDYVFIKLSINLSDGDIGVFEYYGDAYIKQLVINDSGAFLHSLNDKYDDILIDRDSDFRIIGEVIGSFTSKS”, the “soluble on expression in E. coli” value is given as “not soluble”. “MAKQPTVLWAQRESLVYLTIEVDEAKIEELKGEGNKLHFQGSSKTDKYEATLEFFDEIDPASVKHTGSSTRVVEITVQKKTPAWWPRLLQNKGKVHWLKVDFGKWKDEDEDDEAEDAGAGIGGGMANGFDLNQYMSQMGGAGGADFGGLEDDEEDDDMPDLEDNEEEEGKNGTRA”: the “soluble on expression in E. coli” value was “not soluble”.

As to “MAKSLRASSHLNAKSVKRRGVFQKAVDAREQRISDKLKEDLLKQKLEDLKKKEEQGIDMDVDEKKSNEEAPRKKISTSGWRDGRHHTYKKAKLMKQSKKKTSFTRF”, the “soluble on expression in E. coli” value is listed as “soluble”. Regarding “MAKVIFQDNFLLMGTNYHEKEANKVMAEIGKKSPYWDKDKDFISDYIKSNFKDIYKYYRVSTKDVEIVREPLNRHDPNAIKVMVNKTFVGYFPADLAKRLTPYVKKSSHYQMEATLTGRGGQYKTLKNDLKTVVTKKKDITYKLRLTILKVDRVSKSKNAGLLESIASWFLNLEHHHHHH”, the “soluble on expression in E. coli” value is reported as “soluble”.
